Results from patent publication US20240132546A1 (Molecular Partners, published 2024).

Key:
[1] = target: T1, biotinylated full-length HER2 (human, UniProt P04626 23-652, limits assumed, biotinylated (site not stated)); test: SPR, single trace, 500 nM analyte over biotinylated HER2 on the chip, double-referenced, 1:1 Langmuir fit [continued]
T1 construct: Immobilised on the SPR chip; also called bio-HER2; Human Epidermal Growth Factor Receptor 2
From the text: (§1) FIG. 4: Single-trace SPR profiles of DTPA-coupled DARPins (also referred to as constructs, see Table 7) against biotinylated full-length HER2. As reference, plots 1 and 2 show the profiles of the HER2-binding parental DARPin06 (SEQ ID NO: 6) and DARPin11 (SEQ ID NO: 11), respectively. Plots 3, 4, 5, 6 and 7 show the profiles of construct 6 (DARPin06-GSGSC-DTPA), construct 7 (DARPin07-GSGSC-DTPA), construct 8 (DARPin08-GSGSC-DTPA), construct 9 (DARPin09-GSGSC-DTPA) and construct 10 (DARPin10-GSGSC-DTPA), respectively. Plots 8 and 9 show construct 11 (DARPin11-GSGSC-DTPA) and construct 12 (DARPin12-GSGSC-DTPA), respectively. The GSGSC tag (SEQ ID NO: 14) was fused to the C-terminal end of the DARPins. All analytes (500 nM) were injected in succession for 120s, dissociation was recorded for 180s (25 ul/min of PBS-Tween20 (0.005%)). Each injection was followed by a regeneration step with glycine pH2.0 for 60s. The data was double referenced (control spot and buffer injection) and fitted to a 1:1 Langmuir model.
A surface plasmon resonance (SPR) assay was used to determine if the charge-engineered DARPin variants derived from the parental DARPin06 (SEQ ID NO: 6) and DARPin11 (SEQ ID NO: 11) could still bind to HER2. All SPR data were generated using a Bruker Sierra SPR-32 instrument with PBS-T (0.005% Tween 20) as running buffer. A new Bruker BTC Chip was conditioned according to the manufacturer's protocol. The chip was coated with biotinylated target (bio-HER2) to reach a signal intensity of approximatively 600 RU. All analytes (500 nM) were injected in succession for 120s, dissociation was recorded for 180s (25 ul/min). Each injection was followed by a regeneration step with glycine pH 2.0 for 60s. The data was double referenced (control spot and buffer injection) and fitted to a 1:1 Langmuir model. […] A DTPA coupled DARPin is also referred to as a “construct”. SPR curves are shown in FIG. 4 where plots 1 and 2 show the profiles of the HER2-binding parental DARPin06 and DARPin11 (SEQ ID NOs: 6 and 11, respectively).

[2] = target: T1, biotinylated full-length HER2; test: SPR multi-trace, biotinylated HER2 on chip, analyte 0.617-50 nM, global 1:1 Langmuir fit
From the text: (§2) FIGS. 9A-9F: Multi-trace SPR profiles of DTPA-coupled DARPins (also referred to as constructs, see Tables 7 and 16) against biotinylated full-length HER2. FIGS. 9A, 9B, 9C, 9D, 9E, and 9F show the profiles of construct 6 (DARPin06-GSGSC-DTPA), construct 8 (DARPin08-GSGSC-DTPA), construct 13 (DARPin13-GSGSC-DTPA), construct 14 (DARPin14-GSGSC-DTPA), construct 15 (DARPin15-GSGSC-DTPA) and construct 16 (DARPin16-GSGSC-DTPA), respectively. The GSGSC tag (SEQ ID NO: 14) was fused to the C-terminal end of the DARPins. Three-fold dilutions of the analytes (50, 16.667, 5.556, 1.852 and 0.617 nM) were injected for 300s, dissociation was recorded for 1500s (25 ul/min). Each injection was followed by a regeneration step with glycine pH 2.0 for 60s. Dissociation constants (KD) were calculated from the globally fitted on- and off-rates using standard 1:1-Langmuir model (see Table 17).
(§3) Binding kinetics of the constructs to the target protein HER2 was measured in a multi-trace SPR assay. A new Xantec NAHLC200M chip was conditioned according to the manufacturer's protocol. The chip was coated with biotinylated target (bio-HER2, 10 ug/mL) for 900s to reach a signal intensity of approximately 1200-1300 RU. Three-fold dilutions of the analytes (50, 16.667, 5.556, 1.852 and 0.617 nM) were injected for 300s, dissociation was recorded for 1500s (25 ul/min). Each injection was followed by a regeneration step with glycine pH 2.0 for 60s. The signals (i.e. resonance unit (RU) values) of empty surface and a reference injection (i.e. injection of running buffer only) were subtracted from the RU traces obtained injecting the constructs (double-referencing). Dissociation constants (KD) were calculated from the globally fitted on- and off-rates using standard 1:1-Langmuir model.

[3] = target: T1, biotinylated full-length HER2; test: as above; remark: listed apart in the source
From the text: as §2, §3

[4] = target: T1, biotinylated full-length HER2; test: SPR, single trace, 500 nM analyte over biotinylated HER2 on the chip, double-referenced, 1:1 Langmuir fit
From the text: as §1
A surface plasmon resonance (SPR) assay was used to determine if the charge-engineered DARPin variants derived from the parental DARPin06 (SEQ ID NO: 6) and DARPin11 (SEQ ID NO: 11) could still bind to HER2. […] All analytes (500 nM) were injected in succession for 120s, dissociation was recorded for 180s (25 ul/min). […]

| Kd [1] [nM] | Kd [2] [nM] | koff [2] [s⁻¹] | kon [2] [M⁻¹ s⁻¹] | Kd [3] [nM] | Kd [4] [nM] | Binder |
| --- | --- | --- | --- | --- | --- | --- |
|  | 0.23 | 0.000121 | 524000 | < 1 |  | DARPin14-GSGSC-DTPA (designed binder, maleimide-DTPA coupled to the C-terminal Cys of the GSGSC tag, Charge variant derived from DARPin06; His-TEV tag cleaved off; possible N-terminal GS not included; also called construct 14) DLGTQLLEAAESGQLDEVRELLQAGADVNAQDEYGLTPLYLATAHGHLEIVTVLLEAGADVNAQDAIGFTPLHLAAFIGHLEIATVLLEAGADVNAQDKFGKTPADIAAGAGNEDIAEVLQKAAGSGSC |
|  | 0.357 | 0.000138 | 386000 | < 1 |  | DARPin13-GSGSC-DTPA (designed binder, maleimide-DTPA coupled to the C-terminal Cys of the GSGSC tag, Charge variant derived from DARPin06; His-TEV tag cleaved off; possible N-terminal GS not included; also called construct 13) DLGTQLLQAAESGQLDEVHDLLQAGADVNAQDEYGLTPLYLATAHGHLEIVTVLLEAGADVNAQDAIGFTPLHLAAFIGHLEIATVLLEAGADVNAQDKFGKTPADIAAGAGNEDIAEVLQKAAGSGSC |
|  | 0.637 | 0.000214 | 336000 | < 1 |  | DARPin15-GSGSC-DTPA (designed binder, maleimide-DTPA coupled to the C-terminal Cys of the GSGSC tag, Charge variant derived from DARPin06; His-TEV tag cleaved off; possible N-terminal GS not included; also called construct 15) DLGTQLLRAAESGQLDEVRELLKAGADVNAQDEYGLTPLYLATAHGHLEIVTVLLEAGADVNAQDAIGFTPLHLAAFIGHLEIATVLLEAGADVNAQDNFGTTPADIAAGAGNEDIAEVLQQAAGSGSC |
|  | 0.615 | 0.00026 | 422000 | < 1 |  | DARPin16-GSGSC-DTPA (designed binder, maleimide-DTPA coupled to the C-terminal Cys of the GSGSC tag, Charge variant derived from DARPin06; His-TEV tag cleaved off; possible N-terminal GS not included; also called construct 16) DLGTQLLEAAESGQLDEVRELLKAGADVNAQDEYGLTPLYLATAHGHLEIVTVLLEAGADVNAQDAIGFTPLHLAAFIGHLEIATVLLEAGADVNAQDKFGTTPADIAAGAGNEDIAEVLQKAAGSGSC |
|  |  |  |  |  | 0.0575 | parental DARPin06 (designed binder) DLGKKLLEAARAGQDDEVRELLKAGADVNAKDEYGLTPLYLATAHGHLEIVEVLLKAGADVNAVDAIGFTPLHLAAFIGHLEIAEVLLKAGADVNAQDKFGKTPADIAAGAGNEDIAEVLQKAA |

The next lines start with the binder.

| Binder | Kd [1] [nM] | Kd [2] [nM] | koff [2] [s⁻¹] | kon [2] [M⁻¹ s⁻¹] | Kd [3] [nM] | Kd [4] [nM] |
| --- | --- | --- | --- | --- | --- | --- |
| DARPin07-GSGSC-DTPA (designed binder, maleimide-DTPA coupled to the C-terminal Cys of the GSGSC tag, Charge variant of DARPin06 (negative control for kidney uptake, higher pI); His-TEV tag cleaved off; possible N-terminal GS not included; also called construct 7) DLGTQLLRAAESGQLDTVRTLLKAGADVNAKDEYGLTPLYLATAHGHLQIVRVLLQAGADVNAKDAIGFTPLHLAAFIGHLKIAEVLLKAGADVNAQDKFGKTPAQIAATAGNQQIASVLQKAAGSGSC | 0.457 |  |  |  |  |  |
| DARPin09-GSGSC-DTPA (designed binder, maleimide-DTPA coupled to the C-terminal Cys of the GSGSC tag, Charge variant of DARPin06; His-TEV tag cleaved off; possible N-terminal GS not included; also called construct 9) DLGTQLLQAAESGQLDTVRTLLKAGADVNAQDEYGLTPLYLATAHGHLQIVQVLLSAGADVNAQDAIGFTPLHLAAFIGHLQIAQVLLSAGADVNAQDKFGTTPAQIAATAGNQQIASVLQQAAGSGSC | 1.44 |  |  |  |  |  |
| DARPin11-GSGSC-DTPA (designed binder, maleimide-DTPA coupled to the C-terminal Cys of the GSGSC tag, Parent; His-TEV tag cleaved off; possible N-terminal GS not included; also called construct 11; DTPA coupled parental DARPin11) DLGIKLLFAAAKGQDDEVRELLKAGADVNAKDFQGVTPLHIAAQSGHLEIVEVLLKAGADVNAKDVTGDTPLHLAAQHGHLEIVEVLLKAGADVNAQDERGWTPADLAADWGHEDIAEVLQKAAGSGSC | 0.226 |  |  |  |  |  |
| DARPin08-GSGSC-DTPA (designed binder, maleimide-DTPA coupled to the C-terminal Cys of the GSGSC tag, Charge variant of DARPin06; His-TEV tag cleaved off; possible N-terminal GS not included; also called construct 8) DLGTQLLRAAESGQLDEVRELLKAGADVNAQDEYGLTPLYLATAHGHLEIVTVLLEAGADVNAQDAIGFTPLHLAAFIGHLEIATVLLEAGADVNAQDKFGKTPADIAAGAGNEDIAEVLQKAAGSGSC | 0.583 | 0.17 | 8.82e-05 | 521000 | < 1 |  |
| DARPin10-GSGSC-DTPA (designed binder, maleimide-DTPA coupled to the C-terminal Cys of the GSGSC tag, Charge variant of DARPin06; His-TEV tag cleaved off; possible N-terminal GS not included; also called construct 10) DLGTQLLQAAESGQLDTVRELLKAGADVNAQDEYGLTPLYLATAHGHLQIVRVLLQAGADVNAQDAIGFTPLHLAAFIGHLEIATVLLKAGADVNAQDKFGKTPADIAATAGNQQIASVLQKAAGSGSC | 0.622 |  |  |  |  |  |
| DARPin06-GSGSC-DTPA (designed binder, maleimide-DTPA coupled to the C-terminal Cys of the GSGSC tag, Parent; also called construct 6; DTPA coupled parental DARPin06) DLGKKLLEAARAGQDDEVRELLKAGADVNAKDEYGLTPLYLATAHGHLEIVEVLLKAGADVNAVDAIGFTPLHLAAFIGHLEIAEVLLKAGADVNAQDKFGKTPADIAAGAGNEDIAEVLQKAAGSGSC |  | 0.216 | 0.000141 | 653000 |  | 0.284 |
| DARPin12-GSGSC-DTPA (designed binder, maleimide-DTPA coupled to the C-terminal Cys of the GSGSC tag, Charge variant of DARPin11; His-TEV tag cleaved off; possible N-terminal GS not included; also called construct 12) DLGIQLLFAAAKGQLDTVRTLLQAGADVNAKDFQGVTPLHIAAQSGHLQIVEVLLQAGADVNAKDVTGDTPLHLAAQHGHLQIVTVLLQAGADVNAQDERGWTPADLAADWGNQQIAEVLQQAAGSGSC | 0.982 |  |  |  |  |  |
